One molecule from paper doi:10.1101/2020.06.25.170399 (bioRxiv, 2020) can be followed below.

The assay deals with T1, γ subunit of human NAD-dependent isocitrate dehydrogenase (IDH3) (human, UniProt P51553 40-393).
T1 sequence: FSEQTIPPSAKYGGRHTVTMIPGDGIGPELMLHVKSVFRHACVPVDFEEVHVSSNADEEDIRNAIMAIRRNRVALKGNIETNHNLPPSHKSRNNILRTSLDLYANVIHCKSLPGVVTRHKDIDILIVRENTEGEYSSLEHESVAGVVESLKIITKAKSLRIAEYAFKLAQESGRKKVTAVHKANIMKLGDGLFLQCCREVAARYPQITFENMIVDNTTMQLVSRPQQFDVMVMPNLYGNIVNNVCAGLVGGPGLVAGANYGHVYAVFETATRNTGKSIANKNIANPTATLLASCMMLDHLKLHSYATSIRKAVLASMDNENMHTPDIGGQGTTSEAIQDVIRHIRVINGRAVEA
In words: SEC-MALS. (In gel filtration, larger molecules generally elute earlier.)

B1: α subunit of human NAD-dependent isocitrate dehydrogenase (IDH3) (natural protein)
chain: TGGVQTVTLIPGDGIGPEISAAVMKIFDAAKAPIQWEERNVTAIQGPGGKWMIPSEAKESMDKNKMGLKGPLKTPIAAGHPSMNLLLRKTFDLYANVRPCVSIEGYKTPYTDVNIVTIRENTEGEYSGIEHVIVDGVVQSIKLITEGASKRIAEFAFEYARNNHRSNVTAVHKANIMRMSDGLFLQKCREVAESCKDIKFNEMYLDTVCLNMVQDPSQFDVLVMPNLYGDILSDLCAGLIGGLGVTPSGNIGANGVAIFESVHGTAPDIAGKDMANPTALLLSAVMMLRHMGLFDHAARIEAACFATIKDGKSLTKDLGGNAKCSDFTEEICRRVKDLD
Turning to B1, the binding result was “binds”.
